Broadly, the stoichiometry N is a count of units in the complex or per binding partner.

The experiment has as its target Cdh23 with entire EC domains (Cdh23 EC 1-27) (UniProt Q99PF4). The experiment can be described thus: cross-linking.

For “Cdh23 with entire EC domains (Cdh23 EC 1-27) (from UniProt Q99PF4 24-3354) (domain or fragment)”, the stoichiometry N came to 2.
